Laboratory results from patent US20220332824A1 (NANJING GENSCRIPT BIOTECH, published 2022).

B1: bispecific antibody PD1a-E-HN (bispecific antibody, human IgG4 S228P, kappa)
heavy: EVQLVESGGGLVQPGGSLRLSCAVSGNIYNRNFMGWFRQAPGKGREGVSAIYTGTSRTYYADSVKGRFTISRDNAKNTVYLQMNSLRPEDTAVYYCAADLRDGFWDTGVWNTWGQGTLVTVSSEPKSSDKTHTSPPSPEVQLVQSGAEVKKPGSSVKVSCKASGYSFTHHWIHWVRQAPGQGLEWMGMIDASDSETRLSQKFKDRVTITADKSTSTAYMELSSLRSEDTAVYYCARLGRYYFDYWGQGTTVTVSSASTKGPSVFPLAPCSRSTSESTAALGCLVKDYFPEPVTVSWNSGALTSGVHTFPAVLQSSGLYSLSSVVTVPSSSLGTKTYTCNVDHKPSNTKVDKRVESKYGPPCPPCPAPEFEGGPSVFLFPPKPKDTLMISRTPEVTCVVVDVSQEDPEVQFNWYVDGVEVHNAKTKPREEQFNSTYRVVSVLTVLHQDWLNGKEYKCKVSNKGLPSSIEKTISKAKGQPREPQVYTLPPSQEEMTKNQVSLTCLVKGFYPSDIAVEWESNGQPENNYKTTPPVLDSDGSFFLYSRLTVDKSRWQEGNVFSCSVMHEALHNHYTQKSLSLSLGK
light: EIVLTQSPATLSLSPGERATLSCRASENVGTYISWYQQKPGQAPRLLIYGASNRYTGIPARFSGSGSGTDFTLTISSLEPEDFAVYYCGESYGHLYTFGGGTKVEIKRTVAAPSVFIFPPSDEQLKSGTASVVCLLNNFYPREAKVQWKVDNALQSGNSQESVTEQDSKDSTYSLSSTLTLSKADYEKHKVYACEVTHQGLSSPVTKSFNRGEC
notes: PD1a sdAb fused by the E-linker to the N-terminus of heavy chain H0; also called H3 + L0
B2: bispecific antibody PD1b-E-HN (bispecific antibody, human IgG4 S228P, kappa)
heavy: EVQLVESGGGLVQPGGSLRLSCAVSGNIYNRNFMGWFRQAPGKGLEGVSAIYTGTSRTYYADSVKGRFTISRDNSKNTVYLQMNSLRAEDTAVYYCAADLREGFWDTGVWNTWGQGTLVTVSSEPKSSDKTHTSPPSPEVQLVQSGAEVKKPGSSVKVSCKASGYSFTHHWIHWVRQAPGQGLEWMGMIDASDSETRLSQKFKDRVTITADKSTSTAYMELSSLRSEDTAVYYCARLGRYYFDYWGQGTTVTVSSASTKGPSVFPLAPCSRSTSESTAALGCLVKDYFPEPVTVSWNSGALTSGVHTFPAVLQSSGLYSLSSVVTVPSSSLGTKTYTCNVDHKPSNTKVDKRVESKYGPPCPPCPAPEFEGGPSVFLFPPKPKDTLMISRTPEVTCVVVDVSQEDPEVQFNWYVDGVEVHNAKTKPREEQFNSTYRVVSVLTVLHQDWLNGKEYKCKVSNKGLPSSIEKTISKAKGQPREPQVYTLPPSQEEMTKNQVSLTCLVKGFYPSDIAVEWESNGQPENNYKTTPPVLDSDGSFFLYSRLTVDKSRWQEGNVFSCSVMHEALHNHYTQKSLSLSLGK
light: EIVLTQSPATLSLSPGERATLSCRASENVGTYISWYQQKPGQAPRLLIYGASNRYTGIPARFSGSGSGTDFTLTISSLEPEDFAVYYCGESYGHLYTFGGGTKVEIKRTVAAPSVFIFPPSDEQLKSGTASVVCLLNNFYPREAKVQWKVDNALQSGNSQESVTEQDSKDSTYSLSSTLTLSKADYEKHKVYACEVTHQGLSSPVTKSFNRGEC
notes: PD1b sdAb fused by the E-linker to the N-terminus of heavy chain H0; also called H4 + L0
B3: bispecific antibody PD1a-E-LN (bispecific antibody, human IgG4 S228P, kappa)
heavy: not shown
light: EVQLVESGGGLVQPGGSLRLSCAVSGNIYNRNFMGWFRQAPGKGREGVSAIYTGTSRTYYADSVKGRFTISRDNAKNTVYLQMNSLRPEDTAVYYCAADLRDGFWDTGVWNTWGQGTLVTVSSEPKSSDKTHTSPPSPEIVLTQSPATLSLSPGERATLSCRASENVGTYISWYQQKPGQAPRLLIYGASNRYTGIPARFSGSGSGTDFTLTISSLEPEDFAVYYCGESYGHLYTFGGGTKVEIKRTVAAPSVFIFPPSDEQLKSGTASVVCLLNNFYPREAKVQWKVDNALQSGNSQESVTEQDSKDSTYSLSSTLTLSKADYEKHKVYACEVTHQGLSSPVTKSFNRGEC
notes: PD1a sdAb fused by the E-linker to the N-terminus of light chain L0; also called L3 + H0
B4: bispecific antibody PD1b-E-LN (bispecific antibody, human IgG4 S228P, kappa)
heavy: not shown
light: EVQLVESGGGLVQPGGSLRLSCAVSGNIYNRNFMGWFRQAPGKGLEGVSAIYTGTSRTYYADSVKGRFTISRDNSKNTVYLQMNSLRAEDTAVYYCAADLREGFWDTGVWNTWGQGTLVTVSSEPKSSDKTHTSPPSPEIVLTQSPATLSLSPGERATLSCRASENVGTYISWYQQKPGQAPRLLIYGASNRYTGIPARFSGSGSGTDFTLTISSLEPEDFAVYYCGESYGHLYTFGGGTKVEIKRTVAAPSVFIFPPSDEQLKSGTASVVCLLNNFYPREAKVQWKVDNALQSGNSQESVTEQDSKDSTYSLSSTLTLSKADYEKHKVYACEVTHQGLSSPVTKSFNRGEC
notes: PD1b sdAb fused by the E-linker to the N-terminus of light chain L0; also called L4 + H0
B5: bispecific antibody PD1a-E-HC (bispecific antibody, human IgG4 S228P, kappa)
heavy: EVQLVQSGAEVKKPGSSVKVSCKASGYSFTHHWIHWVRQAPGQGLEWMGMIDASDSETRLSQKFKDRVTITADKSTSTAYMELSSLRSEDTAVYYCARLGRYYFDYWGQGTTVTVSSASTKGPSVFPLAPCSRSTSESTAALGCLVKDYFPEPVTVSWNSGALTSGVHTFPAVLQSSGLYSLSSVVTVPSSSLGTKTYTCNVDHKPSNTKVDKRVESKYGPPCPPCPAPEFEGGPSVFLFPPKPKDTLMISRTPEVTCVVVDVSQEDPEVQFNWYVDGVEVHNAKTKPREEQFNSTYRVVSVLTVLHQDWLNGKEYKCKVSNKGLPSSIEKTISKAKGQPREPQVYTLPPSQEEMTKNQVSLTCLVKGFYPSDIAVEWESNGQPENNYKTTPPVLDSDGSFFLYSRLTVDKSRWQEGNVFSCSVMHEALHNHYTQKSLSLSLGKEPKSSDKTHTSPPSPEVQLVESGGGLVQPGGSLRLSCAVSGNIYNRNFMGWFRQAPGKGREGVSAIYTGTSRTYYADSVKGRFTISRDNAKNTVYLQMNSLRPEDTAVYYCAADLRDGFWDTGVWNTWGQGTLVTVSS
light: EIVLTQSPATLSLSPGERATLSCRASENVGTYISWYQQKPGQAPRLLIYGASNRYTGIPARFSGSGSGTDFTLTISSLEPEDFAVYYCGESYGHLYTFGGGTKVEIKRTVAAPSVFIFPPSDEQLKSGTASVVCLLNNFYPREAKVQWKVDNALQSGNSQESVTEQDSKDSTYSLSSTLTLSKADYEKHKVYACEVTHQGLSSPVTKSFNRGEC
notes: PD1a sdAb fused by the E-linker to the C-terminus of heavy chain H0; also called H1 + L0
B6: bispecific antibody PD1b-E-HC (bispecific antibody, human IgG4 S228P, kappa)
heavy: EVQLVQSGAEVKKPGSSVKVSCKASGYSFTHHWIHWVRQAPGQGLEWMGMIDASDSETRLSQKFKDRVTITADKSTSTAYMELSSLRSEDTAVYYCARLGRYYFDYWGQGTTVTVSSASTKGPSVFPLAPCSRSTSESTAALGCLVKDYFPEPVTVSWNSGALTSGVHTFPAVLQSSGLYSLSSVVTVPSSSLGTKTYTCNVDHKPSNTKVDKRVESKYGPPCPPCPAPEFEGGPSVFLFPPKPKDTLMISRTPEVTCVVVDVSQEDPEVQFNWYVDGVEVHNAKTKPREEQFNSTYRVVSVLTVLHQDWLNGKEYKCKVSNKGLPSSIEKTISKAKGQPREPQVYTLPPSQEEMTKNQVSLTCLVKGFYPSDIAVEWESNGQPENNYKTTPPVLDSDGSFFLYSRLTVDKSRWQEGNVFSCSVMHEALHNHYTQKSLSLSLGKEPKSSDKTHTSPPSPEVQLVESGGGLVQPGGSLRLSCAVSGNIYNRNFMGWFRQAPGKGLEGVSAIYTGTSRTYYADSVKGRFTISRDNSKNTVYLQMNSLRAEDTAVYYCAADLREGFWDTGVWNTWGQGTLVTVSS
light: EIVLTQSPATLSLSPGERATLSCRASENVGTYISWYQQKPGQAPRLLIYGASNRYTGIPARFSGSGSGTDFTLTISSLEPEDFAVYYCGESYGHLYTFGGGTKVEIKRTVAAPSVFIFPPSDEQLKSGTASVVCLLNNFYPREAKVQWKVDNALQSGNSQESVTEQDSKDSTYSLSSTLTLSKADYEKHKVYACEVTHQGLSSPVTKSFNRGEC
notes: PD1b sdAb fused by the E-linker to the C-terminus of heavy chain H0; also called H2 + L0
B7: bispecific antibody PD1a-E-LC (bispecific antibody, human IgG4 S228P, kappa)
heavy: not shown
light: EIVLTQSPATLSLSPGERATLSCRASENVGTYISWYQQKPGQAPRLLIYGASNRYTGIPARFSGSGSGTDFTLTISSLEPEDFAVYYCGESYGHLYTFGGGTKVEIKRTVAAPSVFIFPPSDEQLKSGTASVVCLLNNFYPREAKVQWKVDNALQSGNSQESVTEQDSKDSTYSLSSTLTLSKADYEKHKVYACEVTHQGLSSPVTKSFNRGECEPKSSDKTHTSPPSPEVQLVESGGGLVQPGGSLRLSCAVSGNIYNRNFMGWFRQAPGKGREGVSAIYTGTSRTYYADSVKGRFTISRDNAKNTVYLQMNSLRPEDTAVYYCAADLRDGFWDTGVWNTWGQGTLVTVSS
notes: PD1a sdAb fused by the E-linker to the C-terminus of light chain L0; also called L1 + H0
B8: bispecific antibody PD1b-E-LC (bispecific antibody, human IgG4 S228P, kappa)
heavy: not shown
light: EIVLTQSPATLSLSPGERATLSCRASENVGTYISWYQQKPGQAPRLLIYGASNRYTGIPARFSGSGSGTDFTLTISSLEPEDFAVYYCGESYGHLYTFGGGTKVEIKRTVAAPSVFIFPPSDEQLKSGTASVVCLLNNFYPREAKVQWKVDNALQSGNSQESVTEQDSKDSTYSLSSTLTLSKADYEKHKVYACEVTHQGLSSPVTKSFNRGECEPKSSDKTHTSPPSPEVQLVESGGGLVQPGGSLRLSCAVSGNIYNRNFMGWFRQAPGKGLEGVSAIYTGTSRTYYADSVKGRFTISRDNSKNTVYLQMNSLRAEDTAVYYCAADLREGFWDTGVWNTWGQGTLVTVSS
notes: PD1b sdAb fused by the E-linker to the C-terminus of light chain L0; also called L2 + H0
B9: bispecific antibody PD1a-G15-HC (bispecific antibody, human IgG4 S228P, kappa)
heavy: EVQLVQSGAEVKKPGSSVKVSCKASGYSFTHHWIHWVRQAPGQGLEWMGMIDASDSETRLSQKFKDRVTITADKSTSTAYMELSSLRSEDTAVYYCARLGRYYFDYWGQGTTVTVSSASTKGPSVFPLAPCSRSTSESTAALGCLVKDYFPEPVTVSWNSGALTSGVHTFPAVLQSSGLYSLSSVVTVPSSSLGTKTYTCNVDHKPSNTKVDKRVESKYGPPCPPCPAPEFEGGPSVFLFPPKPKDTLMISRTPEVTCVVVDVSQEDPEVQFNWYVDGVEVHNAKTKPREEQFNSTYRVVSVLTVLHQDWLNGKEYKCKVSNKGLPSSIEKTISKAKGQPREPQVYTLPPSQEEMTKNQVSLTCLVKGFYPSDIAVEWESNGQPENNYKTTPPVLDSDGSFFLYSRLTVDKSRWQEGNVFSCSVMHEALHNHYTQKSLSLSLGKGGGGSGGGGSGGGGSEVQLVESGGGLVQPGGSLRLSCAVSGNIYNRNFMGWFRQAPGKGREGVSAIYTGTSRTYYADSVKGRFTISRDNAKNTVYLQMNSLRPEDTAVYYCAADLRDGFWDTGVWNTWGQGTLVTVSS
light: EIVLTQSPATLSLSPGERATLSCRASENVGTYISWYQQKPGQAPRLLIYGASNRYTGIPARFSGSGSGTDFTLTISSLEPEDFAVYYCGESYGHLYTFGGGTKVEIKRTVAAPSVFIFPPSDEQLKSGTASVVCLLNNFYPREAKVQWKVDNALQSGNSQESVTEQDSKDSTYSLSSTLTLSKADYEKHKVYACEVTHQGLSSPVTKSFNRGEC
notes: PD1a sdAb fused by the G15-linker to the C-terminus of heavy chain H0; also called H5 + L0

These binders were tested against T1, human PD-1 (human, UniProt Q15116 25-288) (assay: flow cytometry on CHO-K1 cells expressing PD-1).
T1 construct: whole, on cells; also called PD-1 antigen
T1 sequence (Q15116 25-288): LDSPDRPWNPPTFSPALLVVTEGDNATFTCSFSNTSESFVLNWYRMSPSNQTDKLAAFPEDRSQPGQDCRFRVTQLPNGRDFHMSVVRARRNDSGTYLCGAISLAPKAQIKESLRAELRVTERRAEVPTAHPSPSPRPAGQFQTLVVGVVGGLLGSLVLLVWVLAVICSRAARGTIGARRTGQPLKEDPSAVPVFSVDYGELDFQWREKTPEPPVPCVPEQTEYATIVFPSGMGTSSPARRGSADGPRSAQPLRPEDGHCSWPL
Experimental: For the constructed series of bispecific antibodies, the affinity of these samples with antigens was measured by using a flow cytometer. […] Then, an antibody-antigen binding curve was generated based on the geometric mean, raw data of four parameters was plotted by using the […] Prism V6.02 software, and a best fitted value program was compiled to analyze EC₅₀.

Binding result, binds:
B1, B2, B3, B4, B5, B6, B7, B8, B9
